Measurements: US20180303913A1
Values joined by “and” are separate entries in the source; they are usually repeats but may differ in a detail not shown here. Equal values may be shown once.

T1: Flag-HA-ID2 (human) (UniProt Q02363)
T1 sequence: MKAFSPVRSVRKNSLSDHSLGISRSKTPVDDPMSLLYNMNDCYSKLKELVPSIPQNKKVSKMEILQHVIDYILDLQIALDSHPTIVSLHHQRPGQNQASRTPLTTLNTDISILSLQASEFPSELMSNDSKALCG


Each molecule was assayed against T1, Flag-HA-ID2 (human) (assay: tandem Flag/HA affinity purification of Flag-HA-ID2 complexes from NCI-H1299 cells, LC-MS/MS; CRAPome specificity score).

| Molecule | Calculated score [(#peptide*#xcorr)/(AveSC*MaxSC*Found# of Expt.)] |
| --- | --- |
| Heat shock 70 kDa protein 1A/1B (from UniProt P0DMV8) | 4.5e-05 |
| Heat shock cognate 71 kDa protein (NP_694881) (from UniProt P11142-2) | 1.88e-05 |
| RING finger protein 113A (from UniProt O15541) | 0.212 |
| Tubulin beta chain | 7.15e-06 |
| GR75_HUMAN Stress-70 protein (from UniProt P38646) | 1.1e-05 |
| Transcription factor E2-alpha (from UniProt P15923) | 23.8 |

Next, values leading:

| Calculated score [(#peptide*#xcorr)/(AveSC*MaxSC*Found# of Expt.)] | Molecule |
| --- | --- |
| 1.79e-05 | tubulin beta-4B chain |
| 6.8e-07 | Protein arginine N-methyltransferase 5 (from UniProt O14744) (enzyme) |
| 3.81e-06 | heat shock cognate 71 kDa protein isoform 1 (from UniProt P11142) |
| 7.71 | transcription factor 12 isoform b (from UniProt Q99081) |
| 1.18e-05 | Elongation factor 1-alpha 2 (from UniProt Q05639) |
| 7.39e-06 | heat shock 70 kDa protein 1-like (from UniProt P34931) |
| 1.25e-05 | Tubulin alpha-1B chain |
| 0.000131 and 5.32e-05 | 78 kDa glucose-regulated protein (from UniProt P11021) |
| 0.0043 | Elongator complex protein 4 (protein) MAAVATCGSVAASTGSAVATASKSNVTSFQRRGPRASVTNDSGPRLVSIAGTRPSVRNGQLLVSTGLPALDQLLGGGLAVGTVLLIEEDKYNIYSPLLFKYFLAEGIVNGHTLLVASAKEDPANILQELPAPLLDDKCKKEFDEDVYNHKTPESNIKMKIAWRYQLLPKMEIGPVSSSRFGHYYDASKRMPQELIEASNWHGFFLPEKISSTLKVEPCSLTPGYTKLLQFIQNIIYEEGFDGSNPQKKQRNILRIGIQNLGSPLWGDDICCAENGGNSHSLTKFLYVLRGLLRTSLSACIITMPTHLIQNKAIIARVTTLSDVVVGLESFIGSERETNPLYKDYHGLIHIRQIPRLNNLICDESDVKDLAFKLKRKLFTIERLHLPPDLSDTVSRSSKMDLAESAKRLGPGCGMMAGGKKHLDF |
